Target: T1, recombinant full-length GST-UVR8 (Arabidopsis), Q9FN03
T1 chain: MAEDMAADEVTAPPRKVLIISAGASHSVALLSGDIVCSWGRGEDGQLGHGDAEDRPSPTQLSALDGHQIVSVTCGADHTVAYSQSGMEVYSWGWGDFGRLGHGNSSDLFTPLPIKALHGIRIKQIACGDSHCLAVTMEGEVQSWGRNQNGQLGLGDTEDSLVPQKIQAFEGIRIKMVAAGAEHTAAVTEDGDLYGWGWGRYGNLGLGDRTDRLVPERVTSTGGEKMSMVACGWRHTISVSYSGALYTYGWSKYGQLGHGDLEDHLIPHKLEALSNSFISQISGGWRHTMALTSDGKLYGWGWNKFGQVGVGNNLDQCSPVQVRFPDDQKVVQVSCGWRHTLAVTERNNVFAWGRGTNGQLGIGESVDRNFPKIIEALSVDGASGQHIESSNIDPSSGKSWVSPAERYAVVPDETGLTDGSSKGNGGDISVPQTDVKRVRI
Assay: SDS-PAGE of non-boiled protein
Conditions: remark: other sources report otherwise

stoichiometry N: 2
B1: recombinant full-length GST-UVR8, Q9FN03 1-440 (receptor)
chain: MAEDMAADEVTAPPRKVLIISAGASHSVALLSGDIVCSWGRGEDGQLGHGDAEDRPSPTQLSALDGHQIVSVTCGADHTVAYSQSGMEVYSWGWGDFGRLGHGNSSDLFTPLPIKALHGIRIKQIACGDSHCLAVTMEGEVQSWGRNQNGQLGLGDTEDSLVPQKIQAFEGIRIKMVAAGAEHTAAVTEDGDLYGWGWGRYGNLGLGDRTDRLVPERVTSTGGEKMSMVACGWRHTISVSYSGALYTYGWSKYGQLGHGDLEDHLIPHKLEALSNSFISQISGGWRHTMALTSDGKLYGWGWNKFGQVGVGNNLDQCSPVQVRFPDDQKVVQVSCGWRHTLAVTERNNVFAWGRGTNGQLGIGESVDRNFPKIIEALSVDGASGQHIESSNIDPSSGKSWVSPAERYAVVPDETGLTDGSSKGNGGDISVPQTDVKRVRI
